Values quoted from earlier work as cited in article PMC10860761.

Tests used:
actin monomer (ATP) = actin monomer (ATP) (UniProt P60010)
actin monomer (ADP) = actin monomer (ADP) (UniProt P60010)

Chain of Srv2/CAP CARP (P17555 369-526): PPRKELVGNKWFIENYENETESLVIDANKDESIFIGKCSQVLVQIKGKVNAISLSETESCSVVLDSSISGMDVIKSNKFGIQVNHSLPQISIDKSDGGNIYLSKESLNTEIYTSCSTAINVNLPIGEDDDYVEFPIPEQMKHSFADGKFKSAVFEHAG
Chain of Srv2/CAP WH2 (P17555 287-336): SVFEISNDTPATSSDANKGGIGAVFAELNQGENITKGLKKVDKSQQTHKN

Row | Substance | Kd (actin monomer (ATP)) | Kd (actin monomer (ADP))
1 | Srv2/CAP WH2 (from UniProt P17555) | 1000 nM | 
2 | Srv2/CAP CARP (from UniProt P17555) |  | 1500 nM
